Positions count from the first letter of the chain named.
B1: TPP-20965 (18206-gl-58-hIgG1wt-Lambda), afucosylated (antibody, V domains shown)
VH: EVQLLESGGGLVQPGGSLRLSCAASGFTFSSYGMHWVRQAPGKGLEWVSAIKWGGGSTGYADSVKGRFTISRDNSKNTLYLQMNSLRAEDTAVYYCARGHHSGKDGRFFDYWGQGTLVTVSS
VL: QSVLTQPPSVSGAPGQRVTISCTGSSSNIGAGYNVHWYQQLPGTAPKLLIYTNNRRPSGVPDRFSGSKSGTSASLAISGLRSEDEADYYCAAWDASLSGWVFGGGTKLTVLG
modifications: afucosylated (no fucose on the N-glycan at N297)
B2: TPP-21045 (17578-gl79-hIgG1-wt-Lambda), afucosylated (antibody, V domains shown)
VH: EVQLLESGGGLVQPGGSLRLSCAASGFTFSSAWMSWVRQAPGKGLEWVSGISWSGGSTGYALSVKGRFTISRDNSKNTLYLQMNSLRAEDTAVYYCARTYSGHYGPFFDYWGQGTLVTVSS
VL: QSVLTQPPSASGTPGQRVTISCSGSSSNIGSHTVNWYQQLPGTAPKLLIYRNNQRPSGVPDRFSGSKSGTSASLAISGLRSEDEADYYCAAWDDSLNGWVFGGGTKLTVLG
modifications: afucosylated (no fucose on the N-glycan at N297)
B3: TPP-21045 (17578-gl79-hIgG1-wt-Lambda), wild type (antibody, V domains shown)
VH: B2 VH
VL: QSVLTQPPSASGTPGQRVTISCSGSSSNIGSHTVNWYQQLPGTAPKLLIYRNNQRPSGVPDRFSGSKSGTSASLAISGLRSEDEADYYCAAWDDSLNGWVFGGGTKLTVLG
B4: TPP-19546 (17578-gl33-hIgG1Lambda), afucosylated (antibody, V domains shown)
VH: B2 VH with L62D, F107Y
VL: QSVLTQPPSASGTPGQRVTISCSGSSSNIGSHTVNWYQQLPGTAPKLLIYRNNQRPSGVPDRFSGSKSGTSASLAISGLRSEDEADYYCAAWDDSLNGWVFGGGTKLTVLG
modifications: afucosylated (no fucose on the N-glycan at N297)
B5: TPP-19546 (17578-gl33-hIgG1Lambda), wild type (antibody, V domains shown)
VH: B2 VH with L62D, F107Y
VL: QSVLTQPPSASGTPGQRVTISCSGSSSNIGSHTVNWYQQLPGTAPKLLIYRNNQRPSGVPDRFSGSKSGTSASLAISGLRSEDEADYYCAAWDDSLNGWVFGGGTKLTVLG
B6: TPP-20950 (18206-gl-42-hIgG1wt-Lambda), afucosylated (antibody, V domains shown)
VH: B1 VH with T58H
VL: B1 VL
modifications: afucosylated (no fucose on the N-glycan at N297)
B7: TPP-20955 (18206-gl-47-hIgG1wt-Lambda), afucosylated (antibody, V domains shown)
VH: B1 VH with T58H, S102K, K104Y
VL: B1 VL
modifications: afucosylated (no fucose on the N-glycan at N297)
B8: TPP-20950, afucosylated (antibody, human IgG1, lambda, V domains shown)
VH: B1 VH with T58H
VL: B1 VL
modifications: afucosylated (no fucose on the N-glycan at N297)
B9: TPP-19546, afucosylated (antibody, human IgG1, lambda, V domains shown)
VH: B2 VH with L62D, F107Y
VL: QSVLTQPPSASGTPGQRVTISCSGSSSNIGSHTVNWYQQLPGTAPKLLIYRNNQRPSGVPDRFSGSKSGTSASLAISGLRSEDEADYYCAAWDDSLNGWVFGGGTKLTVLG
modifications: afucosylated (no fucose on the N-glycan at N297)
B10: TPP-17577 (497A-M178-K09-1-hIgG1Lambda), WT (antibody, V domains shown)
VH: EVQLLESGGGLLQPGGSLRLSCAASGFTFSNAWMSWVRQAPGKGLEWVAVISYDGRNKYSADSVKGRFTISRDNSKNTLYLQMNSLRAEDTAVYYCARGLPYGYWGQGTLVTVSS
VL: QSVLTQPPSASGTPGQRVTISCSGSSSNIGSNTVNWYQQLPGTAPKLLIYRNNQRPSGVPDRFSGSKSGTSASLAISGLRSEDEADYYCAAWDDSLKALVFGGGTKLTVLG
B11: TPP-17577 (497A-M178-K09-1-hIgG1Lambda), afucosylated (antibody, V domains shown)
VH: B10 VH
VL: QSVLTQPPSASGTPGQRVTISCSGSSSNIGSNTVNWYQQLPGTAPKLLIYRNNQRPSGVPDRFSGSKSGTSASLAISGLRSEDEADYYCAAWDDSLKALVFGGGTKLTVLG
modifications: afucosylated N-glycan at N297
B12: TPP-17578 (497A-M128-B10-1-hIgG1Lambda), afucosylated (antibody, V domains shown)
VH: B2 VH with S31N, S52N, S54N, L62D, A97V, F107Y, Y110N
VL: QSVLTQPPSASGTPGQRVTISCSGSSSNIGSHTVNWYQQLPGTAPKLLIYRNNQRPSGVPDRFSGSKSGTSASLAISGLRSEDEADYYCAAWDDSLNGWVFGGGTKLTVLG
modifications: afucosylated N-glycan at N297
B13: TPP-17578 (497A-M128-B10-1-hIgG1Lambda), WT (antibody, V domains shown)
VH: B2 VH with S31N, S52N, S54N, L62D, A97V, F107Y, Y110N
VL: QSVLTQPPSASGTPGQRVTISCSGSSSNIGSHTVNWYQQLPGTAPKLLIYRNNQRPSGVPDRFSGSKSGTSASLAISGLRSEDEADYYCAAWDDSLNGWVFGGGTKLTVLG
B14: TPP-18205 (004-F10_497A-M296-L12+497A-M326-O09-hIgG1Lambda), WT (antibody, V domains shown)
VH: EVQLLESGGGLVQPGGSLRLSCAASGFTFSSYAMSWVRQAPGKGLEWVSGIRWNSGSKGYAGSVKGRFTISRDNSKNTLYLQMNSLRAEDTAVYYCVRSGNYYVGYHGMDVWGQGTLVTVSS
VL: QSVLTQPPSASGTPGQRVTISCSGGNSNIGTYFVSWYQQLPGTAPKLLIYTNNQRPSGVPDRFSGSKSGTSASLAISGLRSEDEADYYCETWDSNTRVFGGGTKLTVLG
B15: TPP-18205 (004-F10_497A-M296-L12+497A-M326-O09-hIgG1Lambda), afucosylated (antibody, V domains shown)
VH: B14 VH
VL: B14 VL
modifications: afucosylated N-glycan at N297

These binders were tested against T1, human CCR8 (human, UniProt P51685 1-355) (assay: cell-based or functional assay).

ADCP EC50 (pM); activated human Tregs donor 1163 + M2c donor 2 [pM]	ADCP Max Response (%); activated human Tregs donor 1163 + M2c donor 2 [%]	Binder
300	36	B1
52.9	28	B2
162	27	B3
404	18	B4
~1.69e+07	18	B5

Target: T1, human CCR8
Assay: cell-based or functional assay
Remark: another data set of the same source

ADCP EC50 (pM); activated human Tregs donor 1212 + M2c donor 3 [pM]	ADCP Max Response (%); activated human Tregs donor 1212 + M2c donor 3 [%]	Binder
23	14	B6
14	13	B7
163	14	B1
9.2	13	B2

These binders were tested against human CCR8 (human, UniProt P51685 1-355) (assay: cell-based or functional assay).

ADCC Max Response (%); activated human Tregs (Donor 1100) as target cells, NK92v effector cells [%]	ADCC hTreg EC50 (pM); activated human Tregs (Donor 1100) as target cells, NK92v effector cells [pM]	Binder
97	9.51	B8
54	8840	B9

Target: T1, human CCR8
Assay: cell-based or functional assay
Remark: another data set of the same source

ADCP EC50 (pM); activated human Tregs donor 1163 + M2c donor 1 [pM]	ADCP Max Response (%); activated human Tregs donor 1163 + M2c donor 1 [%]	Binder
766	44	B1
30.1	28	B2
130	27	B3
	15	B4
	14	B5

Target: T1, human CCR8
Assay: cell-based or functional assay
Remark: another data set of the same source

ADCP EC50 (pM); activated human Tregs donor 1212 + M2c donor 4 [pM]	ADCP Max Response (%); activated human Tregs donor 1212 + M2c donor 4 [%]	Binder
10.7	24	B6
13.2	23	B7
563	23	B1
17.1	23	B2

Target: T1, human CCR8
Assay: cell-based or functional assay
Remark: another data set of the same source

ADCP EC50 (pM); activated human Tregs donor 1212 + M2c macrophages [pM]	ADCP Max Response (%); activated human Tregs donor 1212 + M2c macrophages [%]	Binder
128	32	B6
408	29	B7
1220	30	B2
	20	B4

What follows are binders tested against human CCR8 (P51685_CCR8_HUMAN) (human, UniProt P51685 1-355) (assay: cell-based or functional assay).

ADCC Max Response, activated Tregs + NK92v, Donor 1213 [%]	ADCC Max Response, activated Tregs + NK92v, Donor 1730 [%]	ADCC EC50, activated Tregs + NK92v, Donor 1213 [nM]	ADCC EC50, activated Tregs + NK92v, Donor 1730 [nM]	Binder
10	13			B10
41	40	1.85	4.57	B11
25	38	9.2	19	B12
5	8		197000	B13
20	24	~0.00558	~0.018	B14
52	58	0.23	1.05	B15

— patent US20240376218A1 (published 2024)
